Data as given in publication PMC9687926, “High-Resolution Genetic Mapping Combined with Transcriptome Profiling Reveals That Both Target-Site Resistance and Increased Detoxification Confer Resistance to the Pyrethroid Bifenthrin in the Spider Mite Tetranychus urticae” (Biology, 2022).

Tests used:
[1] = substrate: CC(=O)Oc1ccc([N+](=O)[O-])cc1; experiment: purified protein; type: biochemical, Tetranychus urticae; conditions: 0.1 M phosphate buffer pH 7.5, 30 °C, 1 µg enzyme, 1% acetone
[2] = substrate: CC(=O)Oc1cccc2ccccc12; experiment: purified protein; type: biochemical, Tetranychus urticae; conditions: 0.1 M phosphate buffer pH 7.5, 1 µg enzyme, fast blue RR

B1: CCE58 (Tetranychus urticae) (protein)
chain: TISENVEPELTLSSGSIRGTSVDFRGVKVYQFLGIPFAEPPLNELRFQKPVSKKPWNGVLSVNKWGSACMQPVFPGYNTELHLNEDCLVLNVFTTEAAFQDKQNGKKHKLRPVMVWIHGGSFNYGSANTPDQHDGTPITGLKDVIIVSINYRLGSLGFLQLPEAGVPGNMGLWDQQLALKWVKDNIEHFGGDPNKVTIFGESAGSMSVSAHLVSPQSKGLFTNAIMQSGSIYDLDRWTQPGLVANFTSKIGCISDNYKSCLSNYRFGQFPEADRLTFWPTVDGEFLPHRAEELVSNHTVDPNINVLLGTNANEGAFMLLMKDMVTFHPLNPINLTIPHAKYIFGKLFGKTLIDFYSERYLASLSADDSDSIRLAVTQALGDSIFTCPTYATGRDLIASGVPNVYGYVQTQKPTHTLISVSGQAKWMSNIASHADTFPMVFGHPFNKLDKFKNEDVVLSFLMMDIWTKFAKDGKPPQISHQEWLPWNLSDPIPYPTMVLNSNKIGLIETKSAEFCAKNWPFPLENYYSMDSESGVYAEIE
notes: full-length MR-VL allele, signal peptide removed, codon-optimised, pPICZalphaA secretion in Pichia pastoris X-33, 6xHis tag, Ni-NTA purified, about 75 kDa on SDS-PAGE
[1]
  Km: 0.379 (±0.028) mM
[2]
  Km: 0.446 (±0.051) mM
